# Assay results as given in the supplement of paper PMC10724198.
# ± gives the standard deviation of the averaged measurements.
# Tested on: Saccharomyces cerevisiae
# Test: protein stability index of tFT-peptide fusion (C-terminal peptide) (PSI (0-1 scale)); higher = more stable (slower turnover)
# Settings: genetic background: das1 deletion; temperature: 37 C
# Experimental: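 MPS profiling in S. cerevisiae of the tFT-X12 degron library: putative degron peptides plus stable controls, 12 aa, fused to the C-terminus of a sfGFP-mCherry timer. Cells are FACS-sorted into 8 mCherry/sfGFP bins and deep-sequenced. PSI runs from 0 (unstable) to 1 (stable). Backgrounds are wild type, das1Δ and doa10Δ at 30 °C, and wild type, das1Δ, cdc34-1 and cdc53-1 at 37 °C; 2-3 technical replicates each.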
# 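Note: PSI is a weighted mean of sequencing reads over stability bins, variants kept only with over 10 reads, mCherry proximal and sfGFP distal, peptide attached via GGGS linker.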
row,Sequence,protein stability index
1,FSAVVCPTVFLC,0.746 ± 0.019
2,FSCWLFMLCVFL,0.466 ± 0.026
3,FSIFFFLLPSSL,0.604 ± 0.0097
4,FSLFYYIHLSVA,0.2771 ± 0.002
5,FSLGGVPYVFFV,0.716 ± 0.01
6,FSLWSRRSITVY,0.113 ± 0.019
7,FSPSHMLRIFCY,0.443 ± 0.0051
8,FSRPTYYFIRHS,0.69 ± 0.011
9,FSSRVFLIVGIY,0.538 ± 0.021
10,FVCFSFFFPFLL,0.5099 ± 0.001
11,FVFCTCSFFFLW,0.54 ± 0.021
12,FVSGRFLFFFVL,0.699 ± 0.014
13,FVSSLLPLLTLL,0.694 ± 0.014
14,FVVVGVLFLCVG,0.479 ± 0.011
15,FWFSFSFLCHSY,0.4386 ± 0.001
16,FYFLSFLLLLSP,0.294 ± 0.0094
17,FYGVRFLVCVSA,0.117 ± 0.015
18,GAWLAVCVVREG,0.589 ± 0.0069
19,GCILSLCYAVST,0.534 ± 0.014
20,GCVTFVLISFCA,0.425 ± 0.012

row,Sequence,protein stability index
1,GELVLVMYGIWV,0.502 ± 0.013
2,GFESTCSLLCVF,0.433 ± 0.001
3,GFFFFHGLCFFV,0.5453 ± 0.0035
4,GFFFWTMCFWVV,0.456 ± 0.011
5,GFLVPSSPRCHQ,0.72 ± 0.0086
6,GFSPLFVLVFGV,0.518 ± 0.012
7,GGGSASGWRAAA,0.716 ± 0.027
8,GGKTLSIFLRIS,0.665 ± 0.0095
9,GGLVVYVWGRWS,0.589 ± 0.009
10,GGLWRRLCLGVG,0.469 ± 0.011
11,GGVCVRMECWMG,0.5789 ± 0.0015
12,GGVVGRPWWYVG,0.795 ± 0.013
13,GIFVRIVCIDVA,0.302 ± 0.007
14,GINYSNKKILVN,0.691 ± 0.026
15,GLCSGTGARWLV,0.749 ± 0.018
16,GLPRASPLPIPV,0.6021 ± 0.0017
17,GLRLRCPLLLSL,0.47 ± 0.011
18,GLSGFLLLIVLY,0.417 ± 0.049
19,GLWLCRGLVRAW,0.46 ± 0.009
20,GPFGVGALVCCM,0.503 ± 0.0066

row,Sequence,protein stability index
1,GPNWCSVCQGVG,0.4926 ± 0.0034
2,GPPPAPSPTPSP,0.7217 ± 0.0055
3,GPTLLVSRIAVI,0.565 ± 0.011
4,GQLIYQHIFILG,0.676 ± 0.025
5,GRPYHLCLFSCF,0.754 ± 0.024
6,GRRLGLLNLLSY,0.724 ± 0.019
7,GRSVGVTMFKNG,0.73 ± 0.018
8,GRWLYSACVALN,0.7063 ± 0.0033
9,GSRVICMVVATM,0.6078 ± 0.0058
10,GTRREFVILYLF,0.694 ± 0.035
11,GVFISFFFVFRF,0.373 ± 0.013
12,GVFRYKLILRKM,0.634 ± 0.017
13,GVLHSKGPWFSG,0.75 ± 0.0095
14,GVLLLGSYQWVG,0.334 ± 0.0053
15,GVWLRAVRGFGV,0.76107 ± 0.00069
16,GWCLGFWCLLVC,0.156 ± 0.019
17,GWVVWLTGCLVF,0.586 ± 0.042
18,GYRGRITRLVNG,0.7422 ± 0.00086
19,GYRYMWLWRLSA,0.762 ± 0.028
20,HCLGWCFSRLSS,0.766 ± 0.0092

# Same assay, conditions: genetic background: doa10 deletion; temperature: 30 C
row,Sequence,protein stability index
1,FSAVVCPTVFLC,0.0928 ± 0.02
2,FSCWLFMLCVFL,0.37 ± 0.017
3,FSIFFFLLPSSL,0.443 ± 0.028
4,FSLFYYIHLSVA,0.0982 ± 0.0035
5,FSLGGVPYVFFV,0.195 ± 0.022
6,FSLWSRRSITVY,0.0595 ± 0.02
7,FSPSHMLRIFCY,0.1793 ± 0.00023
8,FSRPTYYFIRHS,0.26 ± 0.021
9,FSSRVFLIVGIY,0.2266 ± 0.0017
10,FVCFSFFFPFLL,0.163 ± 0.01
11,FVFCTCSFFFLW,0.374 ± 0.004
12,FVSGRFLFFFVL,0.162 ± 0.0036
13,FVSSLLPLLTLL,0.142 ± 0.0036
14,FVVVGVLFLCVG,0.258 ± 0.0065
15,FWFSFSFLCHSY,0.386 ± 0.02
16,FYFLSFLLLLSP,0.223 ± 0.0038
17,FYGVRFLVCVSA,0.0738 ± 0.018
18,GAWLAVCVVREG,0.37 ± 0.007
19,GCILSLCYAVST,0.296 ± 0.0074
20,GCVTFVLISFCA,0.186 ± 0.035

row,Sequence,protein stability index
1,GELVLVMYGIWV,0.238 ± 0.0055
2,GFESTCSLLCVF,0.264 ± 0.021
3,GFFFFHGLCFFV,0.358 ± 0.028
4,GFFFWTMCFWVV,0.204 ± 0.0089
5,GFLVPSSPRCHQ,0.654 ± 0.018
6,GFSPLFVLVFGV,0.333 ± 0.016
7,GGGSASGWRAAA,0.344 ± 0.0043
8,GGKTLSIFLRIS,0.14 ± 0.013
9,GGLVVYVWGRWS,0.356 ± 0.021
10,GGLWRRLCLGVG,0.3 ± 0.0089
11,GGVCVRMECWMG,0.485 ± 0.03
12,GGVVGRPWWYVG,0.266 ± 0.015
13,GIFVRIVCIDVA,0.143 ± 0.0085
14,GINYSNKKILVN,0.278 ± 0.022
15,GLCSGTGARWLV,0.52 ± 0.013
16,GLPRASPLPIPV,0.425 ± 0.01
17,GLRLRCPLLLSL,0.507 ± 0.023
18,GLSGFLLLIVLY,0.252 ± 0.0089
19,GLWLCRGLVRAW,0.253 ± 0.001
20,GPFGVGALVCCM,0.304 ± 0.01

row,Sequence,protein stability index
1,GPNWCSVCQGVG,0.446 ± 0.0064
2,GPPPAPSPTPSP,0.685 ± 0.014
3,GPTLLVSRIAVI,0.137 ± 0.0051
4,GQLIYQHIFILG,0.312 ± 0.021
5,GRPYHLCLFSCF,0.333 ± 0.024
6,GRRLGLLNLLSY,0.255 ± 0.016
7,GRSVGVTMFKNG,0.172 ± 0.019
8,GRWLYSACVALN,0.195 ± 0.0073
9,GSRVICMVVATM,0.419 ± 0.035
10,GTRREFVILYLF,0.119 ± 0.0081
11,GVFISFFFVFRF,0.354 ± 0.017
12,GVFRYKLILRKM,0.269 ± 0.0066
13,GVLHSKGPWFSG,0.65 ± 0.014
14,GVLLLGSYQWVG,0.395 ± 0.008
15,GVWLRAVRGFGV,0.652 ± 0.0083
16,GWCLGFWCLLVC,0.0958 ± 0.005
17,GWVVWLTGCLVF,0.407 ± 0.0086
18,GYRGRITRLVNG,0.14 ± 0.024
19,GYRYMWLWRLSA,0.148 ± 0.0028
20,HCLGWCFSRLSS,0.186 ± 0.013
